assay: soluble on expression in E. coli; label from the status in PepcDB or PDB records

Row | Sequence | soluble on expression in E. coli
1 | MDGHHVDARPVEPVQGERDGRAGGSGMSLIKSVRHWLRRHPTVATEPATPPARGAHRGQVDHVILFDGTCSSLEAGHETNVGLIFKLLREERRSVQRTIYYEPGLQWGGWLRIGDLVQGKGLNRQIRRAYGYLASHYQPGDRIFLFGYSRGAYAARSLAGVIDRVGLLRREEATERNVRLAWRHYEQGSIRPHARAFSRRHCHARVEIEMVGIFDTVKALGLRLPLLWRLSEDRHAFHSHKLGRTVRHGFHALALDETRTVFEPVLWDYPYHGQIVEQAWFRGGHGDIGGQLAGGRHGSRLLSNIPLVWMLERATHCGLQLPEGWRARHPCDVTAPMTSMYAGWGKIFLSRQRRPTLRCPTEYIHPTALRPEPRRRKWRLRWGGAPEGEPTQGLEHHHHHH | not soluble
2 | MNNGFFNSDFDSIFRRMMKDMQGSNQVGNKKYYINGKEVSPEELAQLTQQGGNHSAEQSAQAFQQAAQRQQGQQGGNGNYLEQIGRNLTQEARDGLLDPVIGRDKEIQETAEVLSRRTKNNPILVGEAGVGKTAIVEGLAQAIVEGNVPAAIKDKEIISVDISSLEAGTQYRGAFEENIQKLIEGVKSSQNAVLFFDEIHQIIGSGATGSDSGSKGLSDILKPALSRGEISIIGATTQDEYRNNILKDAALTRRFNEVLVNEPSAKDTVEILKGIREKFEEHHQVKLPDDVLKACVDLSIQYIPQRLLPDKAIDVLDITAAHLSAQSPAVDKVETEKRISELENDKRKAVSAEEYKKADDIQNEIKSLQDKLENSNGEHTAVATVHDISDTIQRLTGIPVSQMDDNDIERLKNISNRLRSKIIGQDQAVEMVSRAIRRNRAGFDDGNRPIGSFLFVGPTGVGKTELAKQLAIDLFGNKDALIRLDMSEYSDTTAVSKMIGTTAGYVGYDDNSNTLTEKVRRNPYSVILFDEIEKANPQILTLLLQVMDDGNLTDGQGNVINFKNTIIICTSNAGFGNGNDAEEKDIMHEMKKFFRPEFLNRFNGIVEFLHLDKDALQDIVNLLLDDVQVTLDKKGITMDVSQDAKDWLIEEGYDEELGARPLRRIVEQQVRDKITDYYLDHTDVKHVDIDVEDNELVVKGK | not soluble
3 | MAHHHHHHMQLPRKRGTQRRRAHRRNWRDCTSLCTMRGGAMRWNFRTAWSERKQGTGMGVHEGKPEQSWTYKKADDAIKKNDAVQQFGAAPPVLMVLASDKGWPYSWNTIQDLPKDFFVNCEVDRAWQIVKGDLTAWFSPHGGTDFTPKRRVLIGTPGIGKSVAAGSYLLY | not soluble
4 | MEERLNRVKQQLQQSSYKLTPQREATVRVLIENEKDHLSAEDVYLKVKDKAPEIGLATVYRTLELLAELKVVDKINFGDGVARFDLRKEGAKHFHHHLVCMECGRVDEIDEDLLPEVENRVENEFNFKILDHRLTFHGVCETCQAKGKG | not soluble
5 | YTIEELVKQADQQFNGNIAELMIATEVEMSGRNREDIIKIMSRNLQVMKAAVTEGLTSTKSISGLTGGDAVKMDNYIKKGNSLSDTTILNAVRNAIAVNELNAKMGLVCATPTAGSAGCLPAVLATAIEKLDLSEKEQLEFLFTAGAFGLVIGNNASISGAEGGCQAE | not soluble
6 | MATATPVPPRMGSRAGGPTTPLSPTRLSRLQEKEELRELNDRLAVYIDKVRSLETENSALQLQVTEREEVRGRELTGLKALYETELADARRALDDTARERAKLQIELGKCKAEHDQLLLNYAKKESDLNGAQIKLREYEAALNSKDAALATALGDKKSLEGDLEDLKDQIAQLEASLAAAKKQLADETLLKVDLENRCQSLTEDLEFRKSMYEEEINETRRKHETRLVEVDSGRQIEYEYKLAQALHEMREQHDAQVRLYKEELEQTYHAKLENARLSSEMNTSTVNSAREELMESRMRIESLSSQLSNLQKESRACLERIQELEDLLAKEKDNSRRMLTDKEREMAEIRDQMQQQLNDYEQLLDVKLALDMEISAYRKLLQGEEERLKLSPSPSSRVTVSRASSSRSVRTTRGKRKRVDVEESEASSSVSISHSASATGNVCIEEIDVDGKFIRLKNTSEQDQPMGGWEMIRKIGDTSVSYKYTSRYVLKAGQTVTIWAANAGVTASPPTDLIWKNQNSWGTGEDVKVILKNSQGEEVAQRSTVFKTTIPEEEEEEEEAAGVVVEEELFHQQGTPRASNRSCAIM | soluble
7 | MLLVSGCSGELYSSHTHSLRWFCQSPEGCEREAEVKALARVLLYTDTFTLYTDYGQFAVDFVQRVPSDELPRECDALYGLSLFGHELESSTLCSVGGDAYEMRISVPNRNPSSASEWLAEMRPL | not soluble
8 | MRKYTFKTQRPKIVVIGGGTGLPVVLNGLRKQAVDITAVVTVADDGGSSGIIRNYVNVVPPGDIRNVMVALSSWPDLYKDIFQYRFQGDDQFFAGHAIGNLIIAALTEMKSGVFDAVQELSNMMQVDGHVYPAANEALTLHGKFSDGTELVGEAEITAAHKSLERVWVTDKNGKEPQAVQPVIDAIMAADQIVLGPGSLFTSILPNLTIGNIGRAVCESDAEVVYICNIMTQKGETDNFSDADHVRVLNRHLGQNFINTVLVNTEKVPEDYMDFHKFNEVSKQVSHDFRGLREQNCRVISSNFLKLRDNGAFHDGDQVVAELMNLVGHSDVFRLEHHHHHH | soluble
9 | MGSDKIHHHHHHMTAQRPNRLINESSPYLLQHARNPVDWHPWGEEAFALARSEDKPVFLSIGYSTCHWCHVMAHESFEDEAVAALLNEAFINVKVDREDRPDIDSIYMAACQMLTGSGGWPLTIVMTPDGRPFFAATYIPRLSRGGRTGMLELVPRIRDIWRKQRADVTASADSVAEHMRRHAEGLLRPSSGGAPDDTTVRQAVDTLCQRYDARHGGFGSAPKFPAPHSLLLLLRHAHRTQDAARRAQLTGMVSHTLEAMRLGGIFDHAGYGFHRYSTDKEWLLPHFEKMLYDQAMHVLAYTRGWQLTGRPLFRRTAEEIMMYVMRDLTSPQGAFYAAEDADSDAPPHFAAMGLPHRGEGFFYLFTLQEIRGLLSREDALLAEKIWNLQEEGN | not soluble
10 | MKINLDRTSSGFCIGVQGTIHVAEEKLAQSGELYCLGDVVHNEVEVKRLEALGMETIDIPAFEELRNAEVLIRAHGEPPSTYETARKNNLAITDTTCPVVAKLQRTAKMLHQLGYQVVIYGKKVHPEVIGINGQCDDEGVVIKHPDLSDPEEIAPLDLSRKTALISQTTMDVPGFYELKRNLEKLFAEHGHRNPGTQSGEWMAVRDIDITAEKTGALAMPKLVFKDTICRQVSSRNGKLRDFALANDCIVFAAGRKSSNGQVLYSICKDANPHSYFIEDVDEIRPEWFVGENGKPVESVGICGATSTPMWLLEKVANYIDKTFGDGSSNPNALEHHHHHH | not soluble
11 | MGSDKIHHHHHHAKSYSKAVTKIAGTKNYPIYHKVTKNGPSGKFTSTSYFKYGQIQSKQYVSTKKGNFWNIIVDGRPVGWVSENCFARNTISVANDVSLVKNSDYSFNTRDAINYATDSHGTAIDPDRVQVSQASVSTKATTVNYSYGKAKASVNIDVRSGNDEMGEANVTPKSGFKTTTTWNGGSKGSSRNWNAAHHYTSETTSNTFKSNGLTLRTRLFQPRFVSLGYGQSADKMGQVGVIPEGMTVNGGIFATSMFTSSSDQHGHIVSYNLNTIKSKYAVQNLTTMNWSTFKSYANNIKVSPYIKLGHGQSLGSSSDYIYVMANDNNYNNGPRSEEIIQIRKSDMKINKIWTFRIAENRYIHNATFVGDNTMYALFHNGGHNHYEYWKLTRNGDSWKATEVGATAGSFVSNSPVQGFAYGNGSFFIGFNDNIFKVSENGAAQKHYRFNTGREIEGLSANGSDLYVQFAQRAELTQGRF | not soluble
12 | MGKKELKRGLVVDREAQMIGVYLFEDGKTYRGIPRGKVLKKTKINAGDYVWGEVVDPNTFAIEEVEERKNLLIRPKVANVDRVIIVETLKMPEFNNYLLDNMLVVYEYFKVEPVIVFNKIDLLNEEEKKELERWIAFTGMRATTFSRLEHHHHHH | not soluble
13 | MGSDKIHHHHHHMSRVGFTTSIPVEVILAAGKTPVDLNNVFINSLSPQSMVDLAEEEGYPRNCCGWIKGLYATSLNYDMEALIAVMHGDCSNTQALMETLQLRNKKIIPFAFPFDRERSQLEAQVDKLMQFFEVDMEEVLKARARLEKIRSLCRELDRMTWRDNLVTGQENHYYLLCSSDFNGNPAEFEAELHSFVEEAGKRRPIQEEVRLAYIGVPPIFTDLHQLLELMGARVVFNEVQRQFSMPVESSDIIEQYLHYTYPYGAFARLEDIEEQLAVRDVQGVIHYTQTFCFRQIEDLIFRERLKIPFLTLEGDRPGKVDARSRMRLESFVSMLKK | not soluble
14 | MGHHHHHHSHMEFVTNYTLEELKKRFTELGLEPYRAKQVFRWVYKKFVTDFEKMTDLGKKHRELLKEHFAFHPLEKLDRVEAPDAVKYLFKTKDGHILETVLIKERDHYTLCVSSQIGCAVGCTFCATALDGLKRNLSTAEIIDQYLQVQQDLGEEKIRNVVFMGMGEPLANYENVRKAVEIMVSPEGLDLSKRRITISTSGIVAQIKRMAQDPVMKEVNLAVSLNAVSQKKREELMPLTKTNTLEELMEVLKNYPLPKYRRITLEYVLIKGVNDSPNDAERLAKLIGRHKKKFKVNLIPFNPDPNLPYERPALTDIMKFQKVLWKYGISNFVRFSKGVEVFGACGQLRTQRLQLQRV | soluble
15 | SNAWGLSVERSTYFLAPADRHYLADYARQAEDAWRREGAAGAERFRKELSAKEDTWVALVGPHLESLGSTPLSAEESSHLTFMRKLDWPMSRRLQDELPYVSIEFPGHPEQGRLVIQLPERLLPG | soluble
16 | MAHHHHHHMDGEAAAPTGGAGPKYIVEHLDELEEWSILEYIHICETVKDQNVIFTKFDRPFGEVSEEHNPTCYKQPISELKDKFEWKKICLLDMKATSTLTCSDREHLDYLLFGGILGNVPSDDRTSILRKCQFVISRNLGDMQMTTNTAVLVCHIILDKHVEFKDIPFVDSPEIPLRNEKETMVLPFRFVSKSFFTGMEGDRNVPVLPRNFTEYLIGLGDQRVGDLDEFLSGVVV | soluble
17 | MKEMTGLHSLVSIENFIKQHKFSFIYISRPGCTVCHAVLPQLRIVLDQFPNIKLGHINADDVAEVAGRFSVFTVPVLLLFIDGTEFLREARFVHFEQLEQKLKRVYRLYEGE | not soluble
18 | MDEYQQTIRALSDRIVVAQTPIRILDAVKWDDTVRKNFLAAKGKALPAVDRAYYENRPLGFDSVALKQEFQNIERDVTRQLGQFNPVGQIMRRMCREYRMVVRMLEARGTPDFGLISQELYGAASDAFHAGDPTLADLGLMLSDYLNNIAGRGDLKDEPKILTAKDAVSLLQSRLNRVFGEAEETIRVFESDGIVADAAAGADYIKIRTDAMFNERDVRALEVHEGLVHVGTTLNGQNQPICTFLSKGPPSSTVTQEGLAILMEVIAFASYPSRLRKLTNRTRAIHMAEQGADFLQVFEFYREQGFGMSESYGNASRVFRGSVPDGLPFTKDLSYLKGFIMVYNYIQLAVRKGKLEQVPLLFCGKTTLEDMRTLRQLVDEGLVVAPKYLPEQFRDMNALSAWMCFSNFLNHLSLDRIEADYSNILLEHHHHHH | soluble
19 | MGLIKENRMDSLKVSDYMTLQAVTFSPDMSLSAALEKVVRSDNMGGPVIDAQRHVIGFLSEQDLLDKLVHASYHCQDAHLVSDCMHKEVLSVAPETSIIELAAMMKVGKPKMYPVVSDGKLVGVITRRDVLRALSKTLTNCFQHPV | not soluble
20 | MSDQIIARVSQSLAKEQSLESLVRQLLEMLEMVTDMESTYLTKVDVEARLQHIMFARNSQKMYIPENFTVSWDYSLCKRAIDENCFFSDEVPDRWGDCIAARNLGITTFLSTPIHLPDGSFYGTLCAASSEKRQWSERAEQVLQLFAGLIAQYIQKEALVEQLREANAALIAQSYTDSLTGLPNRRAIFENLTTLFSLARHLNHKIMIAFIDLDNFKLINDRFGHNSGDLFLIQVGERLNTLQQNGEVIGRLGGDEFLVVSLNNENADISSLRERIQQQIRGEYHLGDVDLYYPGASLGIVEVDPETTDADSALHAADIAMYQEKKHKQKTPFVAHPALHS | soluble

From the DeepSol protein solubility set
